Source: patent US20160051704A1, “MOLECULAR IMAGING PROBES FOR LUNG CANCER INTRAOPERATIVE GUIDANCE” (H. Lee Moffitt Cancer Center and Research Institute, Inc., priority 2013, published 2016)

Experiments:
[1] = target: delta opioid receptor (δOR) on HCT-116/δOR cells (UniProt P41143); assay: LTRF competitive binding against Eu-DTPA-DPLCE (5 nM) on whole HCT-116/δOR cells; average of three experiments
[2] = target: delta opioid receptor (δOR) on HCT-116/δOR cells (UniProt P41143); assay: TRF competitive binding against Eu-labeled DPLCE on HCT116/δOR cells

Ki [1]	Ki [2]	Substance
1.43 nM	–	Dmt-Tic-IR800 (Compound 1 of Scheme 4) (peptide)
–	3 nM	Dmt-Tic-Lys(Cy5)-OH (Cy5 labeled ligand 1) (peptide)
–	2.5 nM	Dmt-Tic-Lys(Mpr)-OH (ligand 6) (peptide)
